Results: paper doi:10.1101/2024.02.23.581731 (bioRxiv, 2024)
Values joined by “and” are separate entries in the source; they are usually repeats but may differ in a detail not shown here. Identical values can stand only once. Like-named read-outs stand apart in the source and are kept apart here.

B1: human wild-type 5-HT3A receptor (receptor, UniProt P46098 24-478, looked up)
chain: RRSRNTTRPALLRLSDYLLTNYRKGVRPVRDWRKPTTVSIDVIVYAILNVDEKNQVLTTYIWYRQYWTDEFLQWNPEDFDNITKLSIPTDSIWVPDILINEFVDVGKSPNIPYVYIRHQGEVQNYKPLQVVTACSLDIYNFPFDVQNCSLTFTSWLHTIQDINISLWRLPEKVKSDRSVFMNQGEWELLGVLPYFREFSMESSNYYAEMKFYVVIRRRPLFYVVSLLLPSIFLMVMDIVGFYLPPNSGERVSFKITLLLGYSVFLIIVSDTLPATAIGTPLIGVYFVVCMALLVISLAETIFIVRLVHKQDLQQPVPAWLRHLVLERIAWLLCLREQSTSQRPPATSQATKTDDCSAMGNHCSHMGGPQDFEKSPRDRCSPPPPPREASLAVCGLLQELSSIRQFLEKRDEIREVARDWLRVGSVLDKLLFHIYLLAVLAYSITLVMLWSIWQYA
B2: mouse wild-type 5-HT3A receptor (receptor, UniProt P23979 24-489, looked up)
chain: SRRRATQARDTTQPALLRLSDHLLANYKKGVRPVRDWRKPTTVSIDVIMYAILNVDEKNQVLTTYIWYRQYWTDEFLQWTPEDFDNVTKLSIPTDSIWVPDILINEFVDVGKSPNIPYVYVHHRGEVQNYKPLQLVTACSLDIYNFPFDVQNCSLTFTSWLHTIQDINITLWRSPEEVRSDKSIFINQGEWELLEVFPQFKEFSIDISNSYAEMKFYVIIRRRPLFYAVSLLLPSIFLMVVDIVGFCLPPDSGERVSFKITLLLGYSVFLIIVSDTLPATAIGTPLIGVYFVVCMALLVISLAETIFIVRLVHKQDLQRPVPDWLRHLVLDRIAWILCLGEQPMAHRPPATFQANKTDDCSGSDLLPAMGNHCSHVGGPQDLEKTPRGRGSPLPPPREASLAVRGLLQELSSIRHFLEKRDEMREVARDWLRVGYVLDRLLFRIYLLAVLAYSITLVTLWSIWHYS

Tests used:
cryo-EM structure [1] = target: the molecule itself; experiment: cryo-EM structure
cryo-EM structure [2] = target: the molecule itself; experiment: cryo-EM structure; remark: listed apart in the source

| Protein | stoichiometry N (cryo-EM structure [1]) | stoichiometry N (cryo-EM structure [2]) |
| --- | --- | --- |
| B1 | 5 and 4 | – |
| B2 | – | 5 |
